Assay: yeast display, Sf9 membrane polyspecificity reagent, FACS + sequencing; frameworks hold sequencing errors
How it was run: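 In a synthetic yeast display library (Saccharomyces cerevisiae BJ5465), nanobody expression was induced with galactose for 36–48 hours. FACS gates were set low and high (top ~1%) using anti-HA fluorescence for expression and streptavidin fluorescence for binding of the Sf9 membrane reagent. Each polyreactivity label is drawn from the gate of origin.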

Sequence: QVQHVESGGGLVQAGGSLRLSFAASGSTFAWYPMGWYRQAPGKERELVAAITRDGSTYYADSVKGRFTISRDNAKNTVYLQMNSLKPEDTAVYYCAADLSYWRGGHSRYYWGQGTQVTVSS
- polyreactivity (PSR sort gate): low polyreactivity

Sequence: QVQLVESGGGLVQAGGSLRLSCAASGSISYTYAMGWYRQAPGKERELVAAISYSEGITYYADSVKGRFTISRDNAKNTVYLQMNSLKPEDTAVYYCAVEGVYPYYDQSEYDYWGQGTQVTVSS
- polyreactivity (PSR sort gate): high polyreactivity

Sequence: QVQLVESGGGLVQAGGSLRLSCAASGSIFPQNAMGWYRQAPGKERELVASITSRGGITNYADSVKGRFTISRDNAKNTVYLQMNSLKPEDSAVYYCAADLYIYPYDYWGQGTQVTVSS
- polyreactivity (PSR sort gate): low polyreactivity

Sequence: QVQLVETGGGLVQAGGSLRLSCAASGRTFARYAMGWYRQAPGTERELVAAISWGGTRTYYADSVKGRFTISRDNAKNTVYLQMNSLKPEDTAVYYCAATYLYRDQPKWGGFAYTYGLWGQGTQVTVSS
- polyreactivity (PSR sort gate): high polyreactivity

Sequence: QVHLVESGGGLVQAGGSLRLSCAASGSIFGNNAMGWYRQAPGKERELVAAISSGGSTNYADSVKGRFTISRDNAKNTVYLQMNSLKPEDTAFYYCAKHSWSRAFSWATRLHWRYDYWGQGTQVTVSS
- polyreactivity (PSR sort gate): low polyreactivity

Sequence: QVQLVESGGGLVQAGGSLRLSCAASGRTFFCYAMGWYRQAPGKERELVAAITYRGGGTYYADSVKGRFTISRDNAKNTVNLQMNSLKPEDTAVYYCAAEYWVGVYLYDYWGQGTQVTVSS
- polyreactivity (PSR sort gate): high polyreactivity

Sequence: QVQLVESGGGLVHAGCSLRLSCAASGFTFKYYAMGWYRQPPGKEREIVAAISYSGGRTYYADSVKGRFTISRDNAKNTVYLQMNSLKPEDTAVYYCATDDVWKDGYWGQGTQVTVSS
- polyreactivity (PSR sort gate): low polyreactivity

Sequence: QVQLVESGGGLVQAGGSLRLSCAASGSIFLAYAMGWYRQAPGKEREFVAAISSRGGSTYYADSVKGRFTISRDNAKNTVYLQMNSLKPEDTAVYYCARYKYTRQTRVEYGYWGQGTQVTVSS
- polyreactivity (PSR sort gate): high polyreactivity

Sequence: QVQLVESGGGLVQAGGSLRLSCAASGRTFRFYAMGWYRQAPGKERELVAAITGSGGSTYYADSVKGRFTISRDNAKNTVYLQMNSLKPEDTAVYYCAAQRQQRYYNPEHYNYWGQGTQVTVSS
- polyreactivity (PSR sort gate): low polyreactivity

Sequence: QVQLVESGGGLVQAGGSLRLSCAASGRIIGKNAMGWYRQAPGKERELVAAIRYNGGRTYYADSVKGRFTISRDNAKNTVYLQMNSLKPEDTAVYYCATRTYRVDPEFGYWGQGTQVTVSS
- polyreactivity (PSR sort gate): high polyreactivity

Sequence: QVQLVESGGGLFQAGGSLRLSCAASGRIFGWYAMGWYRQAPGKDRELVAAMSSSTSTYYADSVKGRFTISRDNEKNTVYLEMNSLKPEDTAVYYCNADWYYQRGQNYWFRYDYWGQGTQVTVCS
- polyreactivity (PSR sort gate): high polyreactivity

Sequence: QVQLVESGGGLVQSGGSLRLSCAGSGSTLYYYVMGWYRQAPGKERELVAAISSSGDSTYYADSVKGRFTISRDNAKNTVSLQMNSLKPEDTAVYYCNAGWYFYGESTDDYWGQGTQVTVSS
- polyreactivity (PSR sort gate): low polyreactivity

Sequence: QVQLVESGGGLVQAGGSLRLSCAASGFIFKPNAMGWYRQAPGKERELVAAITWGGDNTYYADSVKGRFTISRDNAKNTVYLQMNSLKPDDTAVYYCAAEWKFHSDASYIYDYWGQGTQVTVSS
- polyreactivity (PSR sort gate): high polyreactivity

Sequence: QVQLVESGGGLVQAGGSLRLSCAASGNIFSRYAMGWYRQAPGKERELVAAISSSGGTTYYADSVKGRFTISRDNAKNTVYLHMNSLKPEDTAVYYCNARRRQIYSEFGYWGQGTQVTVSS
- polyreactivity (PSR sort gate): high polyreactivity

Sequence: QVQLVESGGGLVQAGGSLRLSCADSGRTFYYYAMGWYRQAPGKEREFVAAITTRGGSTYYADSVKGRFTISRDNAKNTVYLQMNSLTPEDTAVYYCAARYTGRQGVYKTYYYWGQGTQVTVSS
- polyreactivity (PSR sort gate): high polyreactivity

Sequence: QVHLVEAGGGLVQAGGSLRYSCAASGYTFKLYAMGWYRQAPGKESELVAAITSGGSTSFADSVKGRFTISRDNAKNTVYLQMNSLKPEDTAVYYCAKRYSSYRAWYRNVGYYYWGLGTQVTVSS
- polyreactivity (PSR sort gate): high polyreactivity

Sequence: QVQLVESGGGLVQAGGSLRLSCAASGSTFGRNAMGWYRQAPGKERELVATITKSGGSTYYADSVKGRFTISRDNAKNTVYLQMNSLKPEDTAVYYCAKGVYYKVLRGGGDYWGQGTQVTVSS
- polyreactivity (PSR sort gate): high polyreactivity

Sequence: QVQHVESGGGLDQAGGSLRLSCAASGITFEGYAMGWYRQAPGKERELVAAIRSSGTSTYYADSVKGRFTISRDNAKNTFYLQMISLKPEETAVYYCNRARSSYSYDYWGQGTQVTVSS
- polyreactivity (PSR sort gate): low polyreactivity

Sequence: QVQLVESVGGLVQAGGSLRLSCAASGSIFYNYAMGWYRQAPGKERELVAAISSNGGSTYYADSVKGRFTISRDIAKNTVYLQMNSLKPEDTAVYYCAARYWYPYWYRYSAYDYWGQGTQVTVSS
- polyreactivity (PSR sort gate): high polyreactivity

Sequence: QVQLVESGRGLVQAGGSLRLSCAASGIIFPFYAMGCYRQAPGKERELVAAITSGDDTYYADSVKGRFTISRDNAKNTVYLQMNSLKPEDTAVYYCNKRLYIAGYWPQLYYIMDYWGQGTQVTVSS
- polyreactivity (PSR sort gate): low polyreactivity

Sequence: QVQLVESGGGLVQAGGSLRLSCAASGRTFPQYAMGWYRQAPGKERELVASITSRSGRTYYADSVKGRFTISRDNAKNTVYLQMNSLKPEDTAVYYCNAVSSWWYMNYWGQGTQVTVSS
- polyreactivity (PSR sort gate): high polyreactivity

Sequence: QVQLVESGGGLVQAGGSLRLSCAASGRIFAGYALGWYRQAPGKERELVAAITFRSGTTYYADSVKGRFTISRDNAKNTVYLQMHSLKPEDTAVYYCAARWGPYAFTYVRTYDYWGQGTQVTGSS
- polyreactivity (PSR sort gate): low polyreactivity

Sequence: QVQLVESGGGLVQAGGSLRLSCAASGTFVLSAMGWYRPAPGKERELVAAISKTGRTYYADSVKGRFTISRDNAKNTVYLQMNSLKPEDTSVYYCAAQRFSKFGYWGQGTQVTVSS
- polyreactivity (PSR sort gate): high polyreactivity

Sequence: QVQLVESGGGLVQAGGSLRLSCAASGSTFVGNAMGWYRQAPGKERELVAAISRGGGRTYYADSVKGRFTISRDNAKNTVYLQMNSLKPEDTAVYYCNADVYHRAWHLDYWGQGTQVTVSS
- polyreactivity (PSR sort gate): high polyreactivity

Sequence: QVQLVESGGGLVQAGGSLRLSCAASGLTLYRYAMGWYRQAPGKERELVAGISWGGGSTYYADSVKGRFTISRDNAKNTVYLQMNSLKPEDTAVYYCAAGRLLYIPRYYYWGQGTQVTVSS
- polyreactivity (PSR sort gate): high polyreactivity

Sequence: QVQLVESGGGLVQAGGSLRISCAASGRTLTSNAMGWYRQAPGKERELVASITGSSSNTYYADSVKGRFTISRDNAKNTVYLQMNSLKPEDTAVSYCAAEVGFPWWRLDEYWGQGTQVTVSS
- polyreactivity (PSR sort gate): low polyreactivity

Sequence: QVQLVESGGGLVQAGGSLRLSCAASGRIFDWNMGWYRQAPGKDRELVAGITFSVDSTYYADSVKGRFTISRDNAKNTVYLQMNSLKPEDTAYWGQGTQVTVST
- polyreactivity (PSR sort gate): low polyreactivity

Sequence: QVQIVESGGGLVQAGGSLSLSCAASGYNFYSYAMGWYRQAPGTKRELVAAITNSGGSTYYADSVKGRFTISRDNAKNTVYLQMNSLKPEDTAVYSCNASYWRAYSYKYDYWGQGTQVTVSS
- polyreactivity (PSR sort gate): high polyreactivity

Sequence: QVQLVESGGGLVQAGGSLRLSCAASGRIFRYNTMGRNRHAPGKEREFVAAISYRGASTYYADSVKGRFTISRDNAKNNVYLQMNSLKPEDTAVYYCAAVTISKGFYPYDYWGQGTQVSVSS
- polyreactivity (PSR sort gate): high polyreactivity

Sequence: QVQLVESGGGLVQAGGSLRLRCAASGRTFLPYAMGWSRQAPGKVRVLVAAIDSSGTSTYYADSVKGRFTISRDNAKNTVYLQMNSLKPEDTAVYYCAKAWPDHWYSRYDYWGQGTQVTVSS
- polyreactivity (PSR sort gate): low polyreactivity

Sequence: QVQLVESGGGLVQAGGSLRLSCAASGFTFYSNAMGWYRQAPGKERELGAAITWSTGNTYYADSVKGRFTISRDNAKNTVYLQMNSLKPEDTAVYYCAARSHTGYYPPSYYWGQATQVTVSS
- polyreactivity (PSR sort gate): high polyreactivity

Sequence: QVQLVESGGGLVQAGGSLRLSCAASGSTFGYYTMGWYRQAPGKERELVAAISRSGGRTYYADSVKGRFTISRDNAKKAVYLQMNSLKPEVTAVFYCNADGTRYAGDDYWGQGTQVTVSS
- polyreactivity (PSR sort gate): high polyreactivity

Sequence: QVQLVESGGGLVQAGGSLRLSCAASGSTFDFYAMGWYRQAPGKERELVARISSGGGRTYYADSVKGRFTISRDNAKNTVYLQMNSLKPEDTAVYYCATDYPWIFGHFLMDYWGQGTQVTVSS
- polyreactivity (PSR sort gate): low polyreactivity

Sequence: QVQLVESGGGLVQAGGSLRLSCAASGITFRGYAMGWYRKAPGKERELVASITNTDSTYYADSVKGRFTISRDNAKNTVYLQMNSLKPEDTAVYYCAARRGRKYGYWGQGTQVTVSS
- polyreactivity (PSR sort gate): high polyreactivity

Sequence: QVQLVESGRRLVQAGGSLRLSCAASGINFDSYAMGWYRQAPGKERELVAAITSDSGRTYYADSVTGRFTISRDNAKNTVYLQMNSVKPEDTPVYYCAKRWDGPYDYWGQGTQVTVSS
- polyreactivity (PSR sort gate): low polyreactivity

Sequence: QVQLVESGGGLVQAGGSLRLSCAASGSIFYYNSMGWYRKAPGKEREFVAAISARGGSTYYADSVKGRFTISRDNAKNTVYLQLNSLKPEDSAVYYCAASWGMGTYSDSTFWGGYYYWGQGTQVTVSS
- polyreactivity (PSR sort gate): low polyreactivity

Sequence: QVQLVESGGGLVQAGGSLRLSCAASGSTLSSYAMGWYRPAPGTERELGAVISGGGRTYYADSVKGRFTISRDNAKNTVYLQMNSLKPEDTAVYYCAAVTFSLGYRYYYWGQGTQVTVSS
- polyreactivity (PSR sort gate): high polyreactivity

Sequence: QVQLVESGGGLVQAGGSLRLSCAASGRIFWHYAMGWYRQAPGKERELVAAIDYSGGRTRYADSVKGRFTISRDNAKNTVYLQMNSLKPEDTAVYYCAARRSSWGSFTGYYYWGQGTQVTVSS
- polyreactivity (PSR sort gate): high polyreactivity

Sequence: QVQLVESGGGLVQAGGSLRVSCAASGSTFASYAMGWSRQAAGKVWEFVAAICRSGGSTYYADSVKGRFTISRDNAKNTVSFQMNSREPEDPAVYYWAKSRYDYTIPEGGYWGQGTQATVSS
- polyreactivity (PSR sort gate): low polyreactivity

Sequence: QVQLVESGGGLVQAGGSLRLSCAASGFIFWYYGMGWYRPAPGKERELVATITSGGSTTYADSVKGRFTISRDNAKNTVYLQMNSLKPEDTAVYYCAADLFYGYYSQADFEYWGQGTQVTVSS
- polyreactivity (PSR sort gate): high polyreactivity

Sequence: QVQLVESGGGLVQAGGSLRLSCAASGRTSLAYSMGWYRQAPGKERELVAAINTRGGSTYYADSVKGRFTISRDNAKNTVYLQINSLKPEDTAVYYCAKGPRLYFTPDKAHWKYDSWGQGTQVTVSS
- polyreactivity (PSR sort gate): low polyreactivity

Sequence: QVQLVESGGGLVQAGGSLRLSCAASGFIFPFYAMGWYRQAPGKEREFVAAITLSSGSTYYADSVKGRFTISRDNAKNTVFLQMNSLKPEDTAVYYCNADYNVYLYYGYDYWGQGTHVTVSS
- polyreactivity (PSR sort gate): low polyreactivity

Sequence: QVQLVESGGGLVQAGGSLRLSCAASGSTFGYYAMGWYRQAPGKERELVAAITGSGGRTYYADSVKGRFTISRDNAKNTVYLQMNSLKPEDTAVYYCAARTYRTEFAYGSWGQGTQVTVSS
- polyreactivity (PSR sort gate): low polyreactivity

Reference: the nanobody polyreactivity screen of Harvey et al. (2022)
